# Experimental data from patent US20180155451A1 (published 2018).
# T1: FcgRIIa R extracellular domain with C-terminal His tag (human, UniProt P12318 34-217)
# T1 construct: extracellular domain; also called FcγRIIa R; FcγRIIa type R; not shown: His tag attached to the C terminus
# T1 sequence (looked up): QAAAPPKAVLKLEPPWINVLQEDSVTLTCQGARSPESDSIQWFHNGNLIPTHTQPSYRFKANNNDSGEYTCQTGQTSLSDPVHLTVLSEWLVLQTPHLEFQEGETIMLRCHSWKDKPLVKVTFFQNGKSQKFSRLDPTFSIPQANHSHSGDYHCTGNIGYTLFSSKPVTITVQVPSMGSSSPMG
# T2: FcgRIIa H extracellular domain with C-terminal His tag (human, UniProt P12318 34-217)
# T2 construct: extracellular domain; also called FcγRIIa H; FcγRIIa type H; not shown: His tag attached to the C terminus
# T2 sequence (looked up): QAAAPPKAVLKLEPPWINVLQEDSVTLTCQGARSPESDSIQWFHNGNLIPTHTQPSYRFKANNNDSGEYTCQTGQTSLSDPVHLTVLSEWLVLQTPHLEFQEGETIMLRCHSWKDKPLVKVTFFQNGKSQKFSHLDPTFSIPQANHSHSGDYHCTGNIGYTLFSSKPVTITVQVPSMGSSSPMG
# T3: FcgRIIb extracellular domain with C-terminal His tag (human, UniProt P31994 43-217)
# T3 construct: extracellular domain; also called FcγRIIb; not shown: His tag attached to the C terminus
# T3 sequence (looked up): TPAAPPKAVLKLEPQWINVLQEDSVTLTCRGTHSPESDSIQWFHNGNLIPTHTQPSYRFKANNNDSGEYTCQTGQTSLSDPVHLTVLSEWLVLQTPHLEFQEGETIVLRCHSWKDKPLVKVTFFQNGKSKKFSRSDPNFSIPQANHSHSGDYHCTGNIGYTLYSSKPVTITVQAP
# T4: FcgRIIa H (human, UniProt P12318 34-217)
# T4 construct: extracellular domain; also called FcγRIIa H; FcγRIIa type H; not shown: His tag attached to the C terminus
# T4 sequence (looked up): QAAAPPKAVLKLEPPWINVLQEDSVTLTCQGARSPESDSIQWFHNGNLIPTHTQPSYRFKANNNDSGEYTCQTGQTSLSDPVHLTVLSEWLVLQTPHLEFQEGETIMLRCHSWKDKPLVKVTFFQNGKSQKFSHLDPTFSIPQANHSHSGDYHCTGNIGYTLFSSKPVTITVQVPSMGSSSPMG
# T5: FcgRIIb (human, UniProt P31994 43-217)
# T5 construct: extracellular domain; Expressed in FreeStyle293 cells and purified; used as analyte in Biacore; also called FcγRIIb; CD32B; not shown: His tag attached to the C terminus
# T5 sequence (looked up): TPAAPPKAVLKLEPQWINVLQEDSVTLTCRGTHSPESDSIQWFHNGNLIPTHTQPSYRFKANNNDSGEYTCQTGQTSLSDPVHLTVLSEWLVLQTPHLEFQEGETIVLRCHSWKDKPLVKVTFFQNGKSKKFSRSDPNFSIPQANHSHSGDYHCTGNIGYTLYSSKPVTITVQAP
# T6: FcgRIIa R (human, UniProt P12318 34-217)
# T6 construct: extracellular domain; also called FcγRIIa R; FcγRIIa type R; not shown: His tag attached to the C terminus
# T6 sequence (looked up): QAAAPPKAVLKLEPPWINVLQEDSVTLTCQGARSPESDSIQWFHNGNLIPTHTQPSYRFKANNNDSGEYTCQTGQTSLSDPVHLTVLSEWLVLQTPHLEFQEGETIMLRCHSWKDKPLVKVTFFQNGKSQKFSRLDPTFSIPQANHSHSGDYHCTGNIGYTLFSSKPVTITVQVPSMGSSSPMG
# What was measured:
# [1] = biological target: T1, FcgRIIa R extracellular domain with …; assay: SPR (Biacore), antibody captured on chip, FcγR extracellular domain as analyte, kinetic analysis
# Method: (§1) Analysis of interaction between obj ective antibody and the FcγR was carried out using Biacore T100 (GE Healthcare), Biacore T200, Biacore A100, and Biacore 4000. HBS-EP+ (GE Healthcare) was used as the running buffer, and the measurement temperature was set to 25° C. Chips produced by immobilizing the antigen peptide by the amine coupling method to a Series S sensor Chip CM5 (GE Healthcare), chips produced by allowing preliminarily biotinylated antigen peptides to interact with and immobilize onto a Series S Sensor Chip SA (certified) (GE Healthcare), chips produced by immobilizing Protein L (ACTIGEN, BioVision) to Series S Sencor Chip CM5 (GE Healthcare), or chips produced by immobilizing Protein A/G (Thermo Scientific) to Series S Sencor Chip CM5 (GE Healthcare) were used. Antibodies of interest were captured onto these chips, and allowed to interact to each FcγR diluted with running buffer. To regenerate and repeatedly use the chip, the antibodies captured onto the chip were washed off by reacting 10 mM glycine-HCl, pH 1.5.
# [2] = biological target: T2, FcgRIIa H extracellular domain with …; assay: as above
# Method: as §1
# [3] = biological target: T3, FcgRIIb extracellular domain with …; assay: as above
# Method: as §1
# [4] = biological target: T7, FcgRIIIa F extracellular domain with C-terminal His tag (human, UniProt P08637 17-208); assay: as above
# T7 construct: extracellular domain; also called FcγRIIIa F; FcγRIIIa (F158); not shown: His tag attached to the C terminus
# Method: as §1
# [5] = biological target: T8, FcgRIa extracellular domain with C-terminal His tag (human, UniProt P12314 16-292); assay: as above
# T8 construct: extracellular domain; Expressed in FreeStyle293 cells; used as analyte in Biacore; also called FcγRIa; FcγRI; not shown: His tag attached to the C terminus
# Method: as §1
# [6] = biological target: T9, FcgRIIIa V extracellular domain with C-terminal His tag (human, UniProt P08637 17-208); assay: as above
# T9 construct: extracellular domain; also called FcγRIIIa V; FcγRIIIa (V158); not shown: His tag attached to the C terminus
# Method: as §1
# FcgRIIIa F = biological target: T10, FcgRIIIa F (human, UniProt P08637 17-208); assay: SPR (Biacore), antibody captured on chip, FcgR extracellular domain as analyte
# T10 construct: extracellular domain; also called FcγRIIIa F; not shown: His tag attached to the C terminus
# Method: as §1
# FcgRIIa H = biological target: T4, FcgRIIa H; assay: as above
# Method: as §1
# FcgRIa = biological target: T11, FcgRIa (human, UniProt P12314 16-292); assay: as above
# T11 construct: extracellular domain; Expressed in FreeStyle293 cells and purified; used as analyte in Biacore; also called FcγRIa; FcγRI; not shown: His tag attached to the C terminus
# Method: as §1
# FcgRIIIa V = biological target: T12, FcgRIIIa V (human, UniProt P08637 17-208); assay: as above
# T12 construct: extracellular domain; also called FcγRIIIa V; not shown: His tag attached to the C terminus
# Method: as §1
# FcgRIIb = biological target: T5, FcgRIIb; assay: as above
# Method: as §1
# FcgRIIa R = biological target: T6, FcgRIIa R; assay: as above
# Method: as §1
# T11 sequence (P12314 16-292): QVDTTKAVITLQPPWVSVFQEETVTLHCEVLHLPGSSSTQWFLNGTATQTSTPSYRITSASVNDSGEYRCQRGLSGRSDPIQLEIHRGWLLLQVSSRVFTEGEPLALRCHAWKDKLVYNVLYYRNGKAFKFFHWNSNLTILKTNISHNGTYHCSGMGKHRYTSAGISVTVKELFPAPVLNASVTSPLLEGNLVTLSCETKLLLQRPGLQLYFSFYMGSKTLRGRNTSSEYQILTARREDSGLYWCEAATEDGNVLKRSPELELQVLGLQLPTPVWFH
# T8 sequence (P12314 16-292): as above
# T10 sequence (P08637 17-208): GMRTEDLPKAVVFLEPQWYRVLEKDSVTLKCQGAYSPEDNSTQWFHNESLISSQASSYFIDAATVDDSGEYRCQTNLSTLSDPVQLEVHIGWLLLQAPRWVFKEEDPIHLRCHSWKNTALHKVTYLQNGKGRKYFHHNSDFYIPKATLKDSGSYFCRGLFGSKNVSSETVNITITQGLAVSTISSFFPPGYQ
# T7 sequence (P08637 17-208): as above
# T9 sequence (P08637 17-208 F176V): as the sequence (P08637 17-208) above, with F160V counted along it
# T12 sequence (P08637 17-208 F176V limits assumed): as the sequence (P08637 17-208) above, with F160V counted along it
binder,measurement,setting,value
"H240-G1d/L73-k0 (antibody, human IgG1, kappa, Anti-epiregulin (EREG) IgG1; also called native IgG1 (anti-epiregulin)) heavy: not shown light: DIQMTQSPSSLSASVGDRVTITCRASQDIHKYIAWYQQKPGQAPRLLIQYTSTLQPGVPSRFSGSGSGTDYTFTISSLQPEDIATYYCLQYEQLRTFGGGTKVEIKRTVAAPSVFIFPPSDEQLKSGTASVVCLLNNFYPREAKVQWKVDNALQSGNSQESVTEQDSKDSTYSLSSTLTLSKADYEKHKVYACEVTHQGLSSPVTKSFNRGEC",Kd,[1],880 nM
same,Kd,[2],660 nM
same,Kd,[3],6000 nM
same,Kd,[4],1400 nM
same,Kd,[5],0.23 nM
same,Kd,[6],310 nM
"H240-Kn061/H240-Hl071/L73-k0 (antibody, human IgG1, kappa, Heterodimerized anti-EREG IgG1: L234Y/L235Y/G236W/H268D/S298A in Kn061, K326D/A330M/K334E in Hl071) heavy 1: QDQLVQSGAEVKKPGASVKVSCKASGFNIKDTYIQWVRQAPGQGLEWMGRIDPLRKQTKYREKFEGRVTITADTSTNTAYMELSSLRSEDTAVYYCVRSGREFDYWGQGTLVTVSSASTKGPSVFPLAPSSKSTSGGTAALGCLVKDYFPEPVTVSWNSGALTSGVHTFPAVLQSSGLYSLSSVVTVPSSSLGTQTYICNVNHKPSNTKVDKKVEPKSCDKTHTCPPCPAPEYYWGPSVFLFPPKPKDTLMISRTPEVTCVVVDVSDEDPEVKFNWYVDGVEVHNAKTKPREEQYNATYRVVSVLTVLHQDWLNGKEYKCKVSNKALPAPIEKTISKAKGQPREPQVCTLPPSRDELTKNQVSLWCLVKGFYPSDIAVEWESNGQPENNYKTTPPVLDSDGSFFLYSKLTVDKSRWQQGNVFSCSVMHEALHNHYTQKSLSLSP heavy 2: QDQLVQSGAEVKKPGASVKVSCKASGFNIKDTYIQWVRQAPGQGLEWMGRIDPLRKQTKYREKFEGRVTITADTSTNTAYMELSSLRSEDTAVYYCVRSGREFDYWGQGTLVTVSSASTKGPSVFPLAPSSKSTSGGTAALGCLVKDYFPEPVTVSWNSGALTSGVHTFPAVLQSSGLYSLSSVVTVPSSSLGTQTYICNVNHKPSNTKVDKKVEPKSCDKTHTCPPCPAPELLGGPSVFLFPPKPKDTLMISRTPEVTCVVVDVSHEDPEVKFNWYVDGVEVHNAKTKPREEQYNSTYRVVSVLTVLHQDWLNGKEYKCKVSNDALPMPIEETISKAKGQPREPQVYTLPPSRCELTKNQVSLSCAVKGFYPSDIAVEWESNGQPENNYKTTPPVLDSDGSFFLVSKLTVDKSRWQQGNVFSCSVMHEALHNHYTQKSLSLSP light: DIQMTQSPSSLSASVGDRVTITCRASQDIHKYIAWYQQKPGQAPRLLIQYTSTLQPGVPSRFSGSGSGTDYTFTISSLQPEDIATYYCLQYEQLRTFGGGTKVEIKRTVAAPSVFIFPPSDEQLKSGTASVVCLLNNFYPREAKVQWKVDNALQSGNSQESVTEQDSKDSTYSLSSTLTLSKADYEKHKVYACEVTHQGLSSPVTKSFNRGEC",Kd,FcgRIIIa F,5.1 nM
same,Kd,FcgRIIa H,280 nM
same,Kd,FcgRIa,0.14 nM
same,Kd,FcgRIIIa V,1.8 nM
same,Kd,FcgRIIb,1200 nM
same,Kd,FcgRIIa R,350 nM
